Experimental data taken from IntAct's records for PubMed 27309808.

B1: Izumo sperm-egg fusion protein 1 (Homo sapiens), Q8IYV9-1 (parent)
chain: MGPHFTLLCAALAGCLLPAEGCVICDPSVVLALKSLEKDYLPGHLDAKHHKAMMERVENAVKDFQELSLNEDAYMGVVDEATLQKGSWSLLKDLKRITDSDVKGDLFVKELFWMLHLQKETFATYVARFQKEAYCPNKCGVMLQTLIWCKNCKKEVHACRKSYDCGERNVEVPQMEDMILDCELNWHQASEGLTDYSFYRVWGNNTETLVSKGKEATLTKPMVGPEDAGSYRCELGSVNSSPATIINFHVTVLPKMIKEEKPSPNIVTPGEATTESSISLQPLQPEKMLASRLLGLLICGSLALITGLTFAIFRRRKVIDFIKSSLFGLGSGAAEQTQVPKEKATDSRQQ
B2: Sperm-egg fusion protein Juno (Homo sapiens), A6ND01-1 (parent)
chain: MACWWPLLLELWTVMPTWAGDELLNICMNAKHHKRVPSPEDKLYEECIPWKDNACCTLTTSWEAHLDVSPLYNFSLFHCGLLMPGCRKHFIQAICFYECSPNLGPWIQPVGSLGWEVAPSGQGERVVNVPLCQEDCEEWWEDCRMSYTCKSNWRGGWDWSQGKNRCPKGAQCLPFSHYFPTPADLCEKTWSNSFKASPERRNSGRCLQKWFEPAQGNPNVAVARLFASSAPSWELSYTIMVCSLFLPFLS

Variants of: B1
Conditions: with IZUMO1R

effect of a mutation on the interaction | Variant
decreasing interaction strength | W148A

Variants of: B2
Conditions: with IZUMO1, Q8IYV9-1

effect of a mutation on the interaction | Variant
decreasing interaction strength | M83A
decreasing interaction strength | L81A
decreasing interaction strength | W62A
